Biological target: recombinant full-length calcium-independent receptor of α-latrotoxin (CIRL) expressed in COS cells (rat)
Sequence (O88917 other isoform, or with tags, fused parts or gaps limits assumed): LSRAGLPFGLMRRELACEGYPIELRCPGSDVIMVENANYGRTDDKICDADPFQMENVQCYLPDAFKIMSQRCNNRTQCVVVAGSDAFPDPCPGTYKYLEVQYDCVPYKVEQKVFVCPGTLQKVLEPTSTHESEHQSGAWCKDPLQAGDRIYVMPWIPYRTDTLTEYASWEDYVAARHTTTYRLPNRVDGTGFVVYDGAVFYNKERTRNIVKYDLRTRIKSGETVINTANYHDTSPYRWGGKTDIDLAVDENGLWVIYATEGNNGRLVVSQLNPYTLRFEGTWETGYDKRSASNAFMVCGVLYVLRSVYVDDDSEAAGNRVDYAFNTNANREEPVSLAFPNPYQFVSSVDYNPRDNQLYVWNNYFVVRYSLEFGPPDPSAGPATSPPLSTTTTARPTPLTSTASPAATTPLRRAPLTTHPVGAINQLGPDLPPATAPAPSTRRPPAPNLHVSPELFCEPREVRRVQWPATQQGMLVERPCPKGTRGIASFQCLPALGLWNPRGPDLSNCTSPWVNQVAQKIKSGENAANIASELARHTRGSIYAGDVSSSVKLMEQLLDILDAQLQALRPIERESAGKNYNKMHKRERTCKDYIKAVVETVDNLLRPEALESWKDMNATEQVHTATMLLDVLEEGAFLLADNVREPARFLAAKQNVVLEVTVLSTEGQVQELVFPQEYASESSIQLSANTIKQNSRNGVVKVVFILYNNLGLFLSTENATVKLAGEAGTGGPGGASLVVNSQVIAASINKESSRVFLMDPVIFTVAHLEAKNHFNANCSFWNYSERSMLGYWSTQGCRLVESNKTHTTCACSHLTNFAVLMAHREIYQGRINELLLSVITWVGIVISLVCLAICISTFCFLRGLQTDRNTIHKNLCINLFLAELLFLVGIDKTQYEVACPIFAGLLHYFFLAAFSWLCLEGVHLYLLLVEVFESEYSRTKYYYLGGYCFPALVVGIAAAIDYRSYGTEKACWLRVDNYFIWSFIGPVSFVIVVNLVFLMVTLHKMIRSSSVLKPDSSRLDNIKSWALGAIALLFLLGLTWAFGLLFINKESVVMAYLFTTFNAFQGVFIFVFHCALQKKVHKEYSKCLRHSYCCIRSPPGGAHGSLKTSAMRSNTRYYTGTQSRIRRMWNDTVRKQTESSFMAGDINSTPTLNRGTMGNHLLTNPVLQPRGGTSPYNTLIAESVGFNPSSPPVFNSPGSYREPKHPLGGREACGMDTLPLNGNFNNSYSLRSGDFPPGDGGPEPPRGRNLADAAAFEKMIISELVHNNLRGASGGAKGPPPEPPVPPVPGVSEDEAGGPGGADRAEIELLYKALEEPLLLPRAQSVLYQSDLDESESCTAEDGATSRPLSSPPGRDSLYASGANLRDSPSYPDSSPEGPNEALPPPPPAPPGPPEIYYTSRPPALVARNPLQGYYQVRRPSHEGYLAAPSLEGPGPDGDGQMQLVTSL

B1: α-latrotoxin (ligand)
chain: EGEDLTLEEKAEICSELELQQKYVDIASNIIGDLSSLPIAGKIAGTIAAAAMTATHVASGRLDIEQTLLGCSDLPFDQIKEVLENRFNEIDRKLDSHSAALEEITKLVEKSISVVEKTRKQMNKRFDEVMKSIQDAKVSPIISKINNFARYFDTEKERIRGLKLNDYILKLEEPNGILLHFKESRTPTDDSLQAPLFSIIEEGYAVPKSIDDELAFKVLYALLYGTQTYVSVMFFLLEQYSFLANHYYEKGYLEKYDEYFNSLNNVFLDFKSSLVGTGTSNNEGLLDRVLQVLMTVKNSEFLGLEKNGVDEMLNEKINLFNKIKEEIEGKQKMTLSETPENFAQISFDKDITTPIGDWRDGREVRYAVQYASETLFSKISHWSDPVSVREKACPTLRMPVDQTRRNVLVFRKFDSSKPQLVGEITPYLSNFIDIDRDLYNAASNPDSAVGFKEFTKLNYDGANIRATFDHGRTVFHAAAKSGNDKIMFGLTFLAKSTELNQPDKKGYTPIHVAADSGNAGIVNLLIQRGVSINSKTYHFLQTPLHLAAQRGFVTTFQRLMESPEININERDKDGFTPLHYAIRGGERILEAFLNQISIDVNAKSNTGLTPFHLAIIKNDWPVASTLLGSKKVDINAVDENNITALHYAAILGYLETTKQLINLKEINANVVSSPGLLSALHYAILYKHDDVASFLMRSSNVNVNLKALGGITPLHLAVIQGRKQILSLMFDIGVNIEQKTDEKYTPLHLAAMSKYPELIQILLDQGSNFEAKTNSGATPLHLATFKGKSQAALILLNNEVNWRDTDENGQMPIHGAAMTGLLDVAQAIISIDATVVDIEDKNSDTPLNLAAQNSHIDVIKYFIDQGADINTRNKKGLAPLLAFSKKGNLDMVKYLFDKNANVYIADNDGMNFFYYAVQNGHLNIVKYAMSEKDKFEWSNTDNNRRDECPNEECAISHFAVCDAVQFDRIEIVKYFVGTLGNFAICGPLHQAARYGHLDIVKYLVEEEFLSVDGSKTDTPLCYASENGHFTVVQYLVSNGAKVNHDCGNGMTAIDKAITKNHLQVVQFLAANGVDFRRKNSRGTTPFLTAVAENALHIAEYLIREKRQDININEQNVDKDTALHLAVYYKNLQMIKLLIKYGIDVTIRNAYDKTALDIAIDAKFSNIVEYLKTKSGKFRR
modifications: radioactively labeled with 125I by chloramine T procedure in the binding and immunoprecipitation assays; coupled to Sepharose in the affinity experiments
B1 showed a Kd of 0.16 nM.
